Results on 2 molecules are retold here after publication PMC4702109, “Osmotic stress induces the phosphorylation of WNK4 Ser575 via the p38MAPK-MK pathway” (Scientific Reports, 2016).

For the assay, the target named is T1, GST-hKLHL3 (290–587) (human, UniProt Q9UH77 290-587).
T1 construct: Kelch-like protein 3 (KLHL3), human, residues 290-587; End of the tag read from the construct's name; also called GST-KLHL3 (290–587); GST-KLHL3; source: E. coli BL21, purified (glutathione-Sepharose column, eluted with glutathione); not shown: GST, N-terminal, kept
T1 sequence (looked up): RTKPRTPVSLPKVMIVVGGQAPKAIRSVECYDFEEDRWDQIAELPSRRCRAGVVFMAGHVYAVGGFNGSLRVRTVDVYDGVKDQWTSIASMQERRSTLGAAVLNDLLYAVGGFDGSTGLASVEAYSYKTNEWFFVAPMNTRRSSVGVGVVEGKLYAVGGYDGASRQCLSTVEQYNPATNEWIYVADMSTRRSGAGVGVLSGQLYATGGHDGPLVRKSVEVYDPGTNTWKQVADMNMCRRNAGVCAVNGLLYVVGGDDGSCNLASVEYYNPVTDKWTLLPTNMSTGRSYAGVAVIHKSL
The experiment in a line: pull-down; FLAG-tagged synthetic WNK4 (557–580) peptides (1 μg) held on anti-FLAG antibody beads; GST-hKLHL3 (290–587) incubated 6 hours, washed with IP lysis buffer; immunoblot; two amounts of GST-KLHL3 (3-fold apart). The following applies: both partners purified.

Where no end group is shown, it is not given here. [ ]: non-standard residue; d: D form. pS = N[C@@H](COP(=O)(O)O)C(=O)O

B1: WNK4 (557–580)-pS575 peptide (peptide, UniProt Q96J92 557-580, looked up)
peptide: EPEEPEADQHQPFLFRHA[pS]YSSTT
modifications: also: FLAG tag, position not given here
notes: Held on anti-FLAG antibody beads; also called peptide phosphorylated at Ser575; source: synthetic peptide (bought: Eurofins Genomics)
Take B1: the binding result is on record as “binds”.

B2: WNK4 (557–580)-WT peptide (peptide, UniProt Q96J92 557-580, looked up)
peptide: EPEEPEADQHQPFLFRHASYSSTT
notes: Held on anti-FLAG antibody beads; also called unphosphorylated peptide; source: synthetic peptide (bought: Eurofins Genomics)
For B2, the binding result is “binds”.
